Experimental data from patent US20240270821A1, “GIP/GLP1/GCG TRI-RECEPTOR AGONISTS AND USES THEREOF” (priority 2023, published 2024).
Where a chain is given by its changes, count along the chain named.

T1: human GIP receptor (human) (UniProt P48546)
T1 sequence (looked up): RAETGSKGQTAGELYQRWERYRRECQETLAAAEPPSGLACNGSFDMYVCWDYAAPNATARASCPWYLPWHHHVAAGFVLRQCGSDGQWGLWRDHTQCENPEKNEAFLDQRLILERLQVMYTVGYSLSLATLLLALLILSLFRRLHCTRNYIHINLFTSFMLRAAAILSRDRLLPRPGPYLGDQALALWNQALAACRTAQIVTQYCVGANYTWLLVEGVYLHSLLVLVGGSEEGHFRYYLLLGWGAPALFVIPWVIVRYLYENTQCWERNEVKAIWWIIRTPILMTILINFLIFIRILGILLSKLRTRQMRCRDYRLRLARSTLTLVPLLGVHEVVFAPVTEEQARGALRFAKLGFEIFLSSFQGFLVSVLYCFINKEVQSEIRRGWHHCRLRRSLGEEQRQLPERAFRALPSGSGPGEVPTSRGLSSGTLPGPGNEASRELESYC

B1: Example 992 (peptide)
chain: YXQGTFTSDXSXXLDXKAQXQFIEXLIAGGPSSGAPPPSGSEE
modifications: non-natural residues (Aib, 4Pal, Orn, Me4Pal, αMeY); lipidated Lys; C-amide; synthetic construct; SITE 2: note = 2-Aminoisobutyric Acid; SITE 10: note = 3-(4-Pyridyl)-L-alanine; SITE 12: note = L-ornithine; SITE 13: note = alpha-methyl-leucine; SITE 16: note = L-ornithine; SITE 17: note = Lysine is chemically modified through conjugation of the epsilon-amino group of the Lys
B2: Example 979 (peptide)
chain: YXQGTFTSDXSXXLDKKAQXAFIEYLIAGGPSSGEPPPSGE
modifications: synthetic construct; SITE 2: note = 2-Aminoisobutyric Acid; SITE 10: note = 3-(4-Pyridyl)-L-alanine; SITE 12: note = L-ornithine; SITE 13: note = alpha-methyl-leucine; SITE 17: note = Lysine is chemically modified through conjugation of the epsilon-amino group of the Lysine side chain with (gamma-Gl)
B3: Example 983 (peptide)
chain: B2 chain with K16X
modifications: Lys acylated (γ-Glu)2-C18 diacid; non-natural residues; C-terminal amide; synthetic construct; SITE 2: note = 2-Aminoisobutyric Acid; SITE 10: note = 3-(4-Pyridyl)-L-alanine; SITE 12: note = L-ornithine; SITE 13: note = alpha-methyl-leucine; SITE 16: note = L-ornithine; SITE 17: note = Lysine is chemically modified through conjugation of the epsilon-amino group of the Lys
B4: Example 989 (peptide)
chain: B2 chain with Y25X, A28E, G29X, E41S
modifications: Lys acylated (γ-Glu)2-C18 diacid; non-natural residues; C-terminal amide; synthetic construct; SITE 2: note = 2-Aminoisobutyric Acid; SITE 10: note = 3-(4-Pyridyl)-L-alanine; SITE 12: note = L-ornithine; SITE 13: note = alpha-methyl-leucine; SITE 17: note = Lysine is chemically modified through conjugation of the epsilon-amino group of the Lysine side chain with (gamma-Gl)
B5: Example 991 (peptide)
chain: B2 chain with K16X, Y25X, A28E, G29X, E41S
modifications: Aib, 4Pal, Orn, Me4Pal, lipidated Lys, C-terminal amide; synthetic construct; SITE 2: note = 2-Aminoisobutyric Acid; SITE 10: note = 3-(4-Pyridyl)-L-alanine; SITE 12: note = L-ornithine; SITE 13: note = alpha-methyl-leucine; SITE 16: note = L-ornithine; SITE 17: note = Lysine is chemically modified through conjugation of the epsilon-amino group of the Lys
B6: Example 987 (peptide)
chain: B2 chain with Y25X, A28E, G29X, E41S
modifications: Aib, 4Pal, Orn, αMeL, Me4Pal, acylated K, C-terminal amide; synthetic construct; SITE 2: note = 2-Aminoisobutyric Acid; SITE 10: note = 3-(4-Pyridyl)-L-alanine; SITE 12: note = L-ornithine; SITE 13: note = alpha-methyl-leucine; SITE 17: note = Lysine is chemically modified through conjugation of the epsilon-amino group of the Lysine side chain with (2-[2-(2-
B7: Example 977 (peptide)
chain: YXQGTFTSDXSQXLDXKAQXAFIEYLIAGGPSSGEPPPSGSE
modifications: synthetic construct; SITE 2: note = 2-Aminoisobutyric Acid; SITE 10: note = 3-(4-Pyridyl)-L-alanine; SITE 13: note = alpha-methyl-leucine; SITE 16: note = L-ornithine; SITE 17: note = Lysine is chemically modified through conjugation of the epsilon-amino group of the Lysine side chain with (gamma-Gl)
B8: Example 980 (peptide)
chain: B7 chain with Q12X, X16K, S41T
modifications: synthetic construct; SITE 2: note = 2-Aminoisobutyric Acid; SITE 10: note = 3-(4-Pyridyl)-L-alanine; SITE 12: note = L-ornithine; SITE 13: note = alpha-methyl-leucine; SITE 17: note = Lysine is chemically modified through conjugation of the epsilon-amino group of the Lysine side chain with (gamma-Gl)
B9: Example 990 (peptide)
chain: B7 chain with Q12X, X16K, Y25X, A28E, G29X
modifications: Aib, 4Pal, Me4Pal, Orn, alpha-methyl-Leu, lipidated Lys, amide; synthetic construct; SITE 2: note = 2-Aminoisobutyric Acid; SITE 10: note = 3-(4-Pyridyl)-L-alanine; SITE 12: note = L-ornithine; SITE 13: note = alpha-methyl-leucine; SITE 17: note = Lysine is chemically modified through conjugation of the epsilon-amino group of the Lysine side chain with (gamma-Gl)
B10: Example 988 (peptide)
chain: B7 chain with Q12X, X16K, Y25X, A28E, G29X
modifications: non-natural residues; Lys acylated AEEA-(γGlu)2-C18 diacid; C-terminal amide; synthetic construct; SITE 2: note = 2-Aminoisobutyric Acid; SITE 10: note = 3-(4-Pyridyl)-L-alanine; SITE 12: note = L-ornithine; SITE 13: note = alpha-methyl-leucine; SITE 17: note = Lysine is chemically modified through conjugation of the epsilon-amino group of the Lysine side chain with (2-[2-(2-
B11: Example 984 (peptide)
chain: B7 chain with Q12X, S41T
modifications: Aib, 4Pal, Orn, αMeL, Me4Pal; (γGlu)2-C18 diacid on Lys; amide; synthetic construct; SITE 2: note = 2-Aminoisobutyric Acid; SITE 10: note = 3-(4-Pyridyl)-L-alanine; SITE 12: note = L-ornithine; SITE 13: note = alpha-methyl-leucine; SITE 16: note = L-ornithine; SITE 17: note = Lysine is chemically modified through conjugation of the epsilon-amino group of the Lys
B12: Example 978 (peptide)
chain: B1 chain with X12Q, Q21A, X25Y, A35E, E42G
modifications: synthetic construct; SITE 2: note = 2-Aminoisobutyric Acid; SITE 10: note = 3-(4-Pyridyl)-L-alanine; SITE 13: note = alpha-methyl-leucine; SITE 16: note = L-ornithine; SITE 17: note = Lysine is chemically modified through conjugation of the epsilon-amino group of the Lysine side chain with (gamma-Gl)
B13: Example 985 (peptide)
chain: B1 chain with Q21A, X25Y, A35E, S41T
modifications: non-natural residues, acylated Lys, C-terminal amide; synthetic construct; SITE 2: note = 2-Aminoisobutyric Acid; SITE 10: note = 3-(4-Pyridyl)-L-alanine; SITE 12: note = L-ornithine; SITE 13: note = alpha-methyl-leucine; SITE 16: note = L-ornithine; SITE 17: note = Lysine is chemically modified through conjugation of the epsilon-amino group of the Lys
B14: Example 981 (peptide)
chain: B1 chain with X16K, Q21A, X25Y, A35E, S41T
modifications: synthetic construct; SITE 2: note = 2-Aminoisobutyric Acid; SITE 10: note = 3-(4-Pyridyl)-L-alanine; SITE 12: note = L-ornithine; SITE 13: note = alpha-methyl-leucine; SITE 17: note = Lysine is chemically modified through conjugation of the epsilon-amino group of the Lysine side chain with (gamma-Gl)
B15: Example 982 (peptide)
chain: YXQGTFTSDXSXXLDKKAQXAFIEYLIAGGPSSGEPPPSGTEEE
modifications: synthetic construct; SITE 2: note = 2-Aminoisobutyric Acid; SITE 10: note = 3-(4-Pyridyl)-L-alanine; SITE 12: note = L-ornithine; SITE 13: note = alpha-methyl-leucine; SITE 17: note = Lysine is chemically modified through conjugation of the epsilon-amino group of the Lysine side chain with (gamma-Gl)
B16: Example 986 (peptide)
chain: B15 chain with X12Q, K16X
modifications: synthetic construct; SITE 2: note = 2-Aminoisobutyric Acid; SITE 10: note = 3-(4-Pyridyl)-L-alanine; SITE 13: note = alpha-methyl-leucine; SITE 16: note = L-ornithine; SITE 17: note = Lysine is chemically modified through conjugation of the epsilon-amino group of the Lysine side chain with (gamma-Gl)

What follows are binders tested against T1, human GIP receptor (human) (assay: cell-based or functional assay).

Binder	cAMP Rel EC50, nM (1% HSA) [nM]	Relative cAMP EC50 [nM]
B1	12.5	–
B2	19.2	0.181
B3	19.4	0.289
B4	8	0.103
B5	14.8	0.119
B6	11.7	0.194
B7	23	0.189
B8	15.4	0.18
B9	9.87	0.115
B10	11.8	0.198
B11	23.5	0.232
B12	33.9	0.284
B13	24	0.34
B14	21.1	0.243
B15	19.4	0.328
B16	31.3	0.299

What follows are binders tested against hGLP-1R (Homo sapiens, UniProt P43220) (assay: cell-based or functional assay).
Sequence of hGLP-1R (P43220 24-463): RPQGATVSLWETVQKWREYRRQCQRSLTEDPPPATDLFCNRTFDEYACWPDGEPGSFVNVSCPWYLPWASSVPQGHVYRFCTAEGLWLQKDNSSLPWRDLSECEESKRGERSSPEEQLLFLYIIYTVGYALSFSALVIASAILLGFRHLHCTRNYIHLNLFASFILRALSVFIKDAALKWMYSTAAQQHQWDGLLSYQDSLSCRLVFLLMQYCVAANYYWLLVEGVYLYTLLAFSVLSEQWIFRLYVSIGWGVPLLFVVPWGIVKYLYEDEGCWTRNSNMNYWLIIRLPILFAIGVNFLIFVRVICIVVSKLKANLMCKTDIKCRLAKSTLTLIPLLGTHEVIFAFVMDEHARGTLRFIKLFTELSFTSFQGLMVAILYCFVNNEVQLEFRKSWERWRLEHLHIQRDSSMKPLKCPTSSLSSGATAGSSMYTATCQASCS

Binder	cAMP Rel EC50, nM (1% HSA) [nM]	Relative cAMP EC50 [nM]
B1	643	–
B2	257	2.72
B3	207	2.35
B4	402	3.92
B5	315	3.91
B6	515	6.33
B7	159	1.1
B8	290	2.26
B9	557	5.78
B10	743	9.5
B11	160	2.07
B12	174	1.6
B13	217	2.93
B14	330	4.45
B15	310	4.94
B16	380	3.06

What follows are binders tested against human glucagon receptor (human) (UniProt P47871) (assay: cell-based or functional assay).
Sequence of human glucagon receptor (human) (P47871 26-477): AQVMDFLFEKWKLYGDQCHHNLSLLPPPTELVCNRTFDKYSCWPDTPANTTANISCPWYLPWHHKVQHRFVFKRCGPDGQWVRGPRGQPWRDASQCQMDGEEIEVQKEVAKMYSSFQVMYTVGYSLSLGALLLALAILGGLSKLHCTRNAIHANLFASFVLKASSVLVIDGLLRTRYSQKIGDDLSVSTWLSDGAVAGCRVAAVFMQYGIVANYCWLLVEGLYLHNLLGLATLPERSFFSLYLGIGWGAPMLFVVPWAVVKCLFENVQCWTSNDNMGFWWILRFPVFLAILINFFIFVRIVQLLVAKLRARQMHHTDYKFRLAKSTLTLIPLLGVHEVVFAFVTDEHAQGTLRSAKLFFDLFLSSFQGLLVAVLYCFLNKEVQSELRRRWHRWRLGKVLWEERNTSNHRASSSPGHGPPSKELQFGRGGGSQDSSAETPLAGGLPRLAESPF

Binder	cAMP Rel EC50, nM (1% HSA) [nM]	Relative cAMP EC50 [nM]
B1	863	–
B2	359	3.34
B3	576	4.75
B4	247	2.27
B5	405	3.03
B6	267	3.62
B7	839	7.18
B8	239	2.41
B9	276	2.47
B10	320	2.52
B11	409	4.5
B12	824	8.91
B13	374	5.41
B14	477	3.7
B15	307	3.91
B16	702	4.94
